Source: US20200048360A1 (TRACON PHARMACEUTICALS, published 2020)
Read-outs that look alike come from different tables or passages of the source.

Legend:
[1] = target: T1, human CD105 (R&D Systems, Catalog No. 1097-EN) (human, UniProt P17813 26-586); assay: competition ELISA on captured human CD105; competitor biotinylated chimeric anti-CD105
T1 construct: Captured on the plate by mouse anti-human CD105 (Southern Biotechnologies 9811-01); also called endoglin
T1 sequence (looked up): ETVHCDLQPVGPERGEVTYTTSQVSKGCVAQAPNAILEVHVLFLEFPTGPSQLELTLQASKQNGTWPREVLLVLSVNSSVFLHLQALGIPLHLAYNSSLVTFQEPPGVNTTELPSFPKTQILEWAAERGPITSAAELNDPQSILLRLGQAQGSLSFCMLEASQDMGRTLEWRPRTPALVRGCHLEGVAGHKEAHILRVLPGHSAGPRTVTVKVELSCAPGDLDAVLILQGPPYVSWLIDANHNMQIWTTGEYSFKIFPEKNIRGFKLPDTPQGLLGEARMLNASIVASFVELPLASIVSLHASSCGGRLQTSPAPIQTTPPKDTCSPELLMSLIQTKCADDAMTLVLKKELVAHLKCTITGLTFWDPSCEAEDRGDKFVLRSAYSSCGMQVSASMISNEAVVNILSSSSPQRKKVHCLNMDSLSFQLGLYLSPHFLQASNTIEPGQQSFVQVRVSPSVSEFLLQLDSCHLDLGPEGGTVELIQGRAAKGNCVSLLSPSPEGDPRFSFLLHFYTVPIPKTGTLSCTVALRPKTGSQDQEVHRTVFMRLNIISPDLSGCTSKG
Method: Antibodies were tested in a competition ELISA for binding to CD105 against biotinylated chimeric anti-CD105. Briefly, chimeric anti-CD105 was biotinylated using a micro-biotinylation kit (Sigma, Catalog No. BTAG-1KT) following the manufacturer's instructions. […] Binding of the biotinylated chimeric antibody was detected via streptavidin-HRP (Sigma, Catalog No. 55512) and TMB substrate (Sigma, Catalog No. T0440). OD450 nm values were measured on a Dynex MRX TCII plate reader. The results of the competition analysis are illustrated in FIGS. 7 and 8. […] To allow for comparisons within and between experiments, IC50 values of humanized or humanized/deimmunized variants were normalized against the reference antibody that was included on each plate to give a value for the fold difference. IC50 values are relative to chimeric anti-CD105 and are representative of three experiments. Summary ELISA data are presented in Table 1 and include antibody expression levels […]) as assayed in saturated static cultures.

[2] = target: T1, human CD105 (R&D Systems, Catalog No. …); assay: ELISA with OD450 falling against test antibody concentration (competition format of paragraph 712: biotinylated chimeric anti-CD105 on captured human CD105; the legend says only 'binding assay data')
[3] = target: T1, human CD105 (R&D Systems, Catalog No. …); assay: as above; remark: listed apart in the source
[4] = target: T1, human CD105 (R&D Systems, Catalog No. …); assay: as above; remark: listed apart in the source

B1: VK2AAVH1Q (antibody, V domains shown)
VH: EVQLVESGGGLVKPGGSLRLSCAASGFTFSDAWMDWVRQAPGKGLEWVGEIRSQASNHATYYAESVKGRFTISRDDSKNTLYLQMNSLKTEDTAVYYCTRWRRFFDSWGQGTLVTVSS
VL: DIQLTQSPSSLSASVGDRATITCRASSSVSYMHWYQQKPGKAPKPWAYATSNLASGVPSRFSGSGSGTDYTLTISSLQPEDFATYYCQQWSSNPLTFGGGTKVEIK
notes: IgG1 heavy chain, kappa light chain
- Relative IC50 (fold of chimeric anti-endoglin antibody) [1]: 0.76 fold relative to chimeric
- IC50 (read off the curve) [2]: ~0.1 µg/mL
- IC50 (read off the curve) [3]: ~0.1 µg/mL

B2: VK2SAVH1A2 (antibody, V domains shown)
VH: EVQLVESGGGLVKPGGSLRLSCAASGFTFSDAWMDWVRQAPGKGLEWVGEARSKASNHATYYAESVKGRFTISRDDSKNTLYLQMNSLKTEDTAVYYCTRWRRFFDSWGQGTLVTVSS
VL: DIQLTQSPSSLSASVGDRVTISCRASSSVSYMHWYQQKPGKAPKPWAYATSNLASGVPSRFSGSGSGTDYTLTISSLQPEDFATYYCQQWSSNPLTFGGGTKVEIK
notes: as for B1
- Relative IC50 (fold of chimeric anti-endoglin antibody) [1]: 0.84 fold relative to chimeric

B3: VK2SSVH1Q (antibody, V domains shown)
VH: EVQLVESGGGLVKPGGSLRLSCAASGFTFSDAWMDWVRQAPGKGLEWVGEIRSQASNHATYYAESVKGRFTISRDDSKNTLYLQMNSLKTEDTAVYYCTRWRRFFDSWGQGTLVTVSS
VL: DIQLTQSPSSLSASVGDRVTISCRASSSVSYMHWYQQKPGKAPKPWIYASSNLASGVPSRFSGSGSGTDYTLTISSLQPEDFATYYCQQWSSNPLTFGGGTKVEIK
notes: as for B1
- Relative IC50 (fold of chimeric anti-endoglin antibody) [1]: 1.21 fold relative to chimeric

B4: VK2SSVH1A2 (antibody, V domains shown)
VH: EVQLVESGGGLVKPGGSLRLSCAASGFTFSDAWMDWVRQAPGKGLEWVGEARSKASNHATYYAESVKGRFTISRDDSKNTLYLQMNSLKTEDTAVYYCTRWRRFFDSWGQGTLVTVSS
VL: DIQLTQSPSSLSASVGDRVTISCRASSSVSYMHWYQQKPGKAPKPWIYASSNLASGVPSRFSGSGSGTDYTLTISSLQPEDFATYYCQQWSSNPLTFGGGTKVEIK
notes: as for B1
- Relative IC50 (fold of chimeric anti-endoglin antibody) [1]: 1.03 fold relative to chimeric

B5: VK2SSVH1R (antibody, V domains shown)
VH: EVQLVESGGGLVKPGGSLRLSCAASGFTFSDAWMDWVRQAPGKGLEWVGEIRSRASNHATYYAESVKGRFTISRDDSKNTLYLQMNSLKTEDTAVYYCTRWRRFFDSWGQGTLVTVSS
VL: DIQLTQSPSSLSASVGDRVTISCRASSSVSYMHWYQQKPGKAPKPWIYASSNLASGVPSRFSGSGSGTDYTLTISSLQPEDFATYYCQQWSSNPLTFGGGTKVEIK
notes: as for B1
- Relative IC50 (fold of chimeric anti-endoglin antibody) [1]: 0.62 fold relative to chimeric

B6: VK2ASVH1A (antibody, V domains shown)
VH: EVQLVESGGGLVKPGGSLRLSCAASGFTFSDAWMDWVRQAPGKGLEWVAEIRSKASNHATYYAESVKGRFTISRDDSKNTLYLQMNSLKTEDTAVYYCTRWRRFFDSWGQGTLVTVSS
VL: DIQLTQSPSSLSASVGDRATITCRASSSVSYMHWYQQKPGKAPKPWIYASSNLASGVPSRFSGSGSGTDYTLTISSLQPEDFATYYCQQWSSNPLTFGGGTKVEIK
notes: as for B1
- Relative IC50 (fold of chimeric anti-endoglin antibody) [1]: 1.41 fold relative to chimeric

B7: VK2ASVH1R (antibody, V domains shown)
VH: EVQLVESGGGLVKPGGSLRLSCAASGFTFSDAWMDWVRQAPGKGLEWVGEIRSRASNHATYYAESVKGRFTISRDDSKNTLYLQMNSLKTEDTAVYYCTRWRRFFDSWGQGTLVTVSS
VL: DIQLTQSPSSLSASVGDRATITCRASSSVSYMHWYQQKPGKAPKPWIYASSNLASGVPSRFSGSGSGTDYTLTISSLQPEDFATYYCQQWSSNPLTFGGGTKVEIK
notes: as for B1
- Relative IC50 (fold of chimeric anti-endoglin antibody) [1]: 1.02 fold relative to chimeric

B8: VK2SAVH1S (antibody, V domains shown)
VH: EVQLVESGGGLVKPGGSLRLSCAASGFTFSDAWMDWVRQAPGKGLEWVSEIRSKASNHATYYAESVKGRFTISRDDSKNTLYLQMNSLKTEDTAVYYCTRWRRFFDSWGQGTLVTVSS
VL: DIQLTQSPSSLSASVGDRVTISCRASSSVSYMHWYQQKPGKAPKPWAYATSNLASGVPSRFSGSGSGTDYTLTISSLQPEDFATYYCQQWSSNPLTFGGGTKVEIK
notes: as for B1
- Relative IC50 (fold of chimeric anti-endoglin antibody) [1]: 0.96 fold relative to chimeric

B9: VK2AAVH1R (antibody, V domains shown)
VH: EVQLVESGGGLVKPGGSLRLSCAASGFTFSDAWMDWVRQAPGKGLEWVGEIRSRASNHATYYAESVKGRFTISRDDSKNTLYLQMNSLKTEDTAVYYCTRWRRFFDSWGQGTLVTVSS
VL: DIQLTQSPSSLSASVGDRATITCRASSSVSYMHWYQQKPGKAPKPWAYATSNLASGVPSRFSGSGSGTDYTLTISSLQPEDFATYYCQQWSSNPLTFGGGTKVEIK
notes: as for B1
- Relative IC50 (fold of chimeric anti-endoglin antibody) [1]: 0.61 fold relative to chimeric
- IC50 (read off the curve) [4]: ~0.1 µg/mL
- IC50 (read off the curve) [3]: ~0.1 µg/mL

B10: VK2SAVH1R (antibody, V domains shown)
VH: EVQLVESGGGLVKPGGSLRLSCAASGFTFSDAWMDWVRQAPGKGLEWVGEIRSRASNHATYYAESVKGRFTISRDDSKNTLYLQMNSLKTEDTAVYYCTRWRRFFDSWGQGTLVTVSS
VL: DIQLTQSPSSLSASVGDRVTISCRASSSVSYMHWYQQKPGKAPKPWAYATSNLASGVPSRFSGSGSGTDYTLTISSLQPEDFATYYCQQWSSNPLTFGGGTKVEIK
notes: as for B1
- Relative IC50 (fold of chimeric anti-endoglin antibody) [1]: 0.77 fold relative to chimeric

B11: VK2ASVH1S (antibody, V domains shown)
VH: EVQLVESGGGLVKPGGSLRLSCAASGFTFSDAWMDWVRQAPGKGLEWVSEIRSKASNHATYYAESVKGRFTISRDDSKNTLYLQMNSLKTEDTAVYYCTRWRRFFDSWGQGTLVTVSS
VL: DIQLTQSPSSLSASVGDRATITCRASSSVSYMHWYQQKPGKAPKPWIYASSNLASGVPSRFSGSGSGTDYTLTISSLQPEDFATYYCQQWSSNPLTFGGGTKVEIK
notes: as for B1
- Relative IC50 (fold of chimeric anti-endoglin antibody) [1]: 1.31 fold relative to chimeric

B12: VK2ASVH1Q (antibody, V domains shown)
VH: EVQLVESGGGLVKPGGSLRLSCAASGFTFSDAWMDWVRQAPGKGLEWVGEIRSQASNHATYYAESVKGRFTISRDDSKNTLYLQMNSLKTEDTAVYYCTRWRRFFDSWGQGTLVTVSS
VL: DIQLTQSPSSLSASVGDRATITCRASSSVSYMHWYQQKPGKAPKPWIYASSNLASGVPSRFSGSGSGTDYTLTISSLQPEDFATYYCQQWSSNPLTFGGGTKVEIK
notes: as for B1
- Relative IC50 (fold of chimeric anti-endoglin antibody) [1]: 1.04 fold relative to chimeric

B13: VK2SSVH1S (antibody, V domains shown)
VH: EVQLVESGGGLVKPGGSLRLSCAASGFTFSDAWMDWVRQAPGKGLEWVSEIRSKASNHATYYAESVKGRFTISRDDSKNTLYLQMNSLKTEDTAVYYCTRWRRFFDSWGQGTLVTVSS
VL: DIQLTQSPSSLSASVGDRVTISCRASSSVSYMHWYQQKPGKAPKPWIYASSNLASGVPSRFSGSGSGTDYTLTISSLQPEDFATYYCQQWSSNPLTFGGGTKVEIK
notes: as for B1
- Relative IC50 (fold of chimeric anti-endoglin antibody) [1]: 1.21 fold relative to chimeric

B14: VK2SAVH1A (antibody, V domains shown)
VH: EVQLVESGGGLVKPGGSLRLSCAASGFTFSDAWMDWVRQAPGKGLEWVAEIRSKASNHATYYAESVKGRFTISRDDSKNTLYLQMNSLKTEDTAVYYCTRWRRFFDSWGQGTLVTVSS
VL: DIQLTQSPSSLSASVGDRVTISCRASSSVSYMHWYQQKPGKAPKPWAYATSNLASGVPSRFSGSGSGTDYTLTISSLQPEDFATYYCQQWSSNPLTFGGGTKVEIK
notes: as for B1
- Relative IC50 (fold of chimeric anti-endoglin antibody) [1]: 0.49 fold relative to chimeric

B15: VK2SAVH1Q (antibody, V domains shown)
VH: EVQLVESGGGLVKPGGSLRLSCAASGFTFSDAWMDWVRQAPGKGLEWVGEIRSQASNHATYYAESVKGRFTISRDDSKNTLYLQMNSLKTEDTAVYYCTRWRRFFDSWGQGTLVTVSS
VL: DIQLTQSPSSLSASVGDRVTISCRASSSVSYMHWYQQKPGKAPKPWAYATSNLASGVPSRFSGSGSGTDYTLTISSLQPEDFATYYCQQWSSNPLTFGGGTKVEIK
notes: as for B1
- Relative IC50 (fold of chimeric anti-endoglin antibody) [1]: 0.87 fold relative to chimeric
